Experiment [1] addresses FITC-labeled native contortrostatin (Agkistrodon contortrix contortrix). Description: fluorescence polarisation.
In experiment [2] the target is FITC-labeled vicrostatin (Agkistrodon contortrix contortrix | not stated). Nature of the experiment: fluorescence polarisation. (In general: In fluorescence polarisation assays a small probe gives low polarisation when free and higher when bound to something large.)

Consider three substances from article PMC3130806.

As for “purified soluble αvβ3 integrin (from UniProt P06756 31-1048; P05106 27-718) (receptor)”, the dissociation constant (Kd) was determined as 6.6 nM in experiment [1] and 7.4 nM in experiment [2].
Regarding “purified soluble αvβ5 integrin (from UniProt P06756 31-1048; P18084 24-719) (receptor)”, the dissociation constant (Kd) in experiment [1] is 19.5 nM; in experiment [2] it was 41.2 nM.
As to “soluble recombinant α5β1 integrin (from UniProt P08648 42-1049; P05556 21-728) (receptor)”, the Kd in experiment [1] is 191 nM; in experiment [2] it was 15.2 nM.

The Kd is the concentration at which binding is half-saturated.
